Article PMC12463286
Where a chain is given by its changes, count along the chain named.

What was measured:
Test in all cases: EMSA
Conditions in all cases: pH 7.5, 30 min at 37 C
[1] = target: T1, FadR-T230A T230A (Streptococcus suis serotype 2 strain ZY05719) (UniProt A0A0H3MZ02)
T1 sequence: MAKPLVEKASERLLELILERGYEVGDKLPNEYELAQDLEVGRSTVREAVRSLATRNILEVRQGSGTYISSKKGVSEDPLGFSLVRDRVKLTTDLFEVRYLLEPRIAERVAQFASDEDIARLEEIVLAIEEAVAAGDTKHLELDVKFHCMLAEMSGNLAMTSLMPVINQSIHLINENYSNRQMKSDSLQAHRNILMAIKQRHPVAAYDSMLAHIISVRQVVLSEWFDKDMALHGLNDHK

[2] = target: T2, FadR (Streptococcus suis serotype 2 strain ZY05719) (UniProt A0A0H3MZ02)
T2 sequence: T1 sequence with A230T

[3] = target: T3, FadR-T230E T230E (Streptococcus suis serotype 2 strain ZY05719) (UniProt A0A0H3MZ02)
T3 sequence: T1 sequence with A230E

Measured: binding

CTGTCCTCCTTGTAGATTTATACATGATGGGAAACGAGGAGGACCGTACGCTTTCCTGCCTCTCATTTCCTCTTTACATCCATAGTTTAACAGAGCAAAAAAACAAAAACTTGAAAACGCTCACATTTATTTTGAGAAATTCTTCACATTTTTAACCTTATTTATAAATAATTATCGATTATATCATCTAAATTCTGCATAATTCTTTCCGTTATATCATTATATGAATTTTTATTTTTTTATAAAAAACAGAAACTTCAATGAGTTTCTGTCAAATTTTCTAAGAAATAATCAATATCT (double strand) [adi promoter]
binds: [1] | [2] | [3]
